The text below walks through data of paper doi:10.1101/2024.02.06.579161.

One may read the stoichiometry N as a count of units in the complex or per binding partner.

This assay concerns the target T1, S100A9, P06702.
T1 chain: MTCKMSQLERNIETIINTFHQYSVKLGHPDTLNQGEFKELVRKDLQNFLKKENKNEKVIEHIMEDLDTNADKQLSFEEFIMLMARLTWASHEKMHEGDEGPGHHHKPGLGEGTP
In words: SDS-PAGE. Particulars: remark: other sources report otherwise.

B1: S100A9, P06702 1-114 (natural protein)
chain: T1 chain
For B1, the stoichiometry N is 2.
